B1: NLV2 TCR alpha chain (CDR3α only) (parent)
chain: AGPMKTSYDKVI
partner: MLVPMVATV

Variants of: B1
Assay: T-Switch: Jurkat TCRβ−/− cells expressing a CDR3 saturation-mutagenesis library, stained with two peptide-HLA-A*02:01 tetramers (original and novel peptide) plus anti-CD3, FACS-sorted into four gates, gDNA sequenced
Conditions: with HLA-A*02:01 with peptide … (NLV 3-1, the novel peptide), tetramers 1 µg/mL, 30 min on ice, SP, DP and SW gates expanded about 10 days between rounds ('two to three rounds of selection' in the Methods), gate SW: higher = more of the variant in the gate that binds the novel peptide and not the original one = switched binding. Fold enrichment of the CDR3 variant in one FACS gate of a two-tetramer stain, unresolved parent, parent is a CDR3 fragment, scale: fold enrichment, numbering: sequential-on-construct, sequence starts at 1

Row | Variant | enrichment
1 | […] (CDR3 as printed); K10C derived by comparing it with the table's wild-type CDR3 AGPMKTSYDKVI | 0
2 | […] (CDR3 as printed); I12Q derived by comparing it with the table's wild-type CDR3 AGPMKTSYDKVI | 0
3 | […] (CDR3 as printed); G2I derived by comparing it with the table's wild-type CDR3 AGPMKTSYDKVI | 0
4 | […] (CDR3 as printed); Y8I derived by comparing it with the table's wild-type CDR3 AGPMKTSYDKVI | 0
5 | […] (CDR3 as printed); K5Q derived by comparing it with the table's wild-type CDR3 AGPMKTSYDKVI | 0
6 | […] (CDR3 as printed); I12K derived by comparing it with the table's wild-type CDR3 AGPMKTSYDKVI | 0
7 | […] (CDR3 as printed); K5H derived by comparing it with the table's wild-type CDR3 AGPMKTSYDKVI | 0
8 | […] (CDR3 as printed); K5R derived by comparing it with the table's wild-type CDR3 AGPMKTSYDKVI | 0
9 | […] (CDR3 as printed); Y8H derived by comparing it with the table's wild-type CDR3 AGPMKTSYDKVI | 0
10 | […] (CDR3 as printed); T6D derived by comparing it with the table's wild-type CDR3 AGPMKTSYDKVI | 0
11 | […] (CDR3 as printed); Y8W derived by comparing it with the table's wild-type CDR3 AGPMKTSYDKVI | 0
12 | […] (CDR3 as printed); M4N derived by comparing it with the table's wild-type CDR3 AGPMKTSYDKVI | 0
13 | […] (CDR3 as printed); A1T derived by comparing it with the table's wild-type CDR3 AGPMKTSYDKVI | 0
14 | […] (CDR3 as printed); A1I derived by comparing it with the table's wild-type CDR3 AGPMKTSYDKVI | 0
15 | […] (CDR3 as printed); T6L derived by comparing it with the table's wild-type CDR3 AGPMKTSYDKVI | 0
16 | […] (CDR3 as printed); Y8S derived by comparing it with the table's wild-type CDR3 AGPMKTSYDKVI | 0
17 | […] (CDR3 as printed); T6W derived by comparing it with the table's wild-type CDR3 AGPMKTSYDKVI | 0
18 | […] (CDR3 as printed); S7I derived by comparing it with the table's wild-type CDR3 AGPMKTSYDKVI | 0
19 | […] (CDR3 as printed); A1D derived by comparing it with the table's wild-type CDR3 AGPMKTSYDKVI | 0
20 | […] (CDR3 as printed); I12C derived by comparing it with the table's wild-type CDR3 AGPMKTSYDKVI | 0
21 | […] (CDR3 as printed); P3H derived by comparing it with the table's wild-type CDR3 AGPMKTSYDKVI | 0
22 | […] (CDR3 as printed); Y8Q derived by comparing it with the table's wild-type CDR3 AGPMKTSYDKVI | 27.8
23 | […] (CDR3 as printed); P3W derived by comparing it with the table's wild-type CDR3 AGPMKTSYDKVI | 0

Row | Variant | enrichment
24 | […] (CDR3 as printed); G2V derived by comparing it with the table's wild-type CDR3 AGPMKTSYDKVI | 0
25 | […] (CDR3 as printed); V11K derived by comparing it with the table's wild-type CDR3 AGPMKTSYDKVI | 0
26 | […] (CDR3 as printed); V11E derived by comparing it with the table's wild-type CDR3 AGPMKTSYDKVI | 0
27 | […] (CDR3 as printed); V11C derived by comparing it with the table's wild-type CDR3 AGPMKTSYDKVI | 0
28 | […] (CDR3 as printed); M4L derived by comparing it with the table's wild-type CDR3 AGPMKTSYDKVI | 0
29 | […] (CDR3 as printed); I12A derived by comparing it with the table's wild-type CDR3 AGPMKTSYDKVI | 0
30 | […] (CDR3 as printed); M4D derived by comparing it with the table's wild-type CDR3 AGPMKTSYDKVI | 0
31 | […] (CDR3 as printed); M4T derived by comparing it with the table's wild-type CDR3 AGPMKTSYDKVI | 0
32 | […] (CDR3 as printed); I12E derived by comparing it with the table's wild-type CDR3 AGPMKTSYDKVI | 0
33 | […] (CDR3 as printed); A1V derived by comparing it with the table's wild-type CDR3 AGPMKTSYDKVI | 0
34 | […] (CDR3 as printed); T6S derived by comparing it with the table's wild-type CDR3 AGPMKTSYDKVI | 0
35 | […] (CDR3 as printed); P3F derived by comparing it with the table's wild-type CDR3 AGPMKTSYDKVI | 0
36 | […] (CDR3 as printed); K10H derived by comparing it with the table's wild-type CDR3 AGPMKTSYDKVI | 0
37 | […] (CDR3 as printed); Y8L derived by comparing it with the table's wild-type CDR3 AGPMKTSYDKVI | 0
38 | […] (CDR3 as printed); T6K derived by comparing it with the table's wild-type CDR3 AGPMKTSYDKVI | 0.282
39 | […] (CDR3 as printed); S7N derived by comparing it with the table's wild-type CDR3 AGPMKTSYDKVI | 0
40 | […] (CDR3 as printed); K5M derived by comparing it with the table's wild-type CDR3 AGPMKTSYDKVI | 0
41 | […] (CDR3 as printed); I12R derived by comparing it with the table's wild-type CDR3 AGPMKTSYDKVI | 0
42 | […] (CDR3 as printed); I12H derived by comparing it with the table's wild-type CDR3 AGPMKTSYDKVI | 0
43 | […] (CDR3 as printed); S7V derived by comparing it with the table's wild-type CDR3 AGPMKTSYDKVI | 0
44 | […] (CDR3 as printed); K10N derived by comparing it with the table's wild-type CDR3 AGPMKTSYDKVI | 0
45 | […] (CDR3 as printed); K10S derived by comparing it with the table's wild-type CDR3 AGPMKTSYDKVI | 1.59
46 | […] (CDR3 as printed); P3A derived by comparing it with the table's wild-type CDR3 AGPMKTSYDKVI | 0

Row | Variant | enrichment
47 | […] (CDR3 as printed); A1M derived by comparing it with the table's wild-type CDR3 AGPMKTSYDKVI | 0
48 | […] (CDR3 as printed); K10Q derived by comparing it with the table's wild-type CDR3 AGPMKTSYDKVI | 0
49 | […] (CDR3 as printed); T6Q derived by comparing it with the table's wild-type CDR3 AGPMKTSYDKVI | 0
50 | […] (CDR3 as printed); P3T derived by comparing it with the table's wild-type CDR3 AGPMKTSYDKVI | 0
51 | […] (CDR3 as printed); T6E derived by comparing it with the table's wild-type CDR3 AGPMKTSYDKVI | 0
52 | […] (CDR3 as printed); K5F derived by comparing it with the table's wild-type CDR3 AGPMKTSYDKVI | 0
53 | […] (CDR3 as printed); S7C derived by comparing it with the table's wild-type CDR3 AGPMKTSYDKVI | 0
54 | […] (CDR3 as printed); S7L derived by comparing it with the table's wild-type CDR3 AGPMKTSYDKVI | 0
55 | […] (CDR3 as printed); T6N derived by comparing it with the table's wild-type CDR3 AGPMKTSYDKVI | 0
56 | […] (CDR3 as printed); G2K derived by comparing it with the table's wild-type CDR3 AGPMKTSYDKVI | 0
57 | […] (CDR3 as printed); S7F derived by comparing it with the table's wild-type CDR3 AGPMKTSYDKVI | 0
58 | […] (CDR3 as printed); I12V derived by comparing it with the table's wild-type CDR3 AGPMKTSYDKVI | 0
59 | […] (CDR3 as printed); Y8T derived by comparing it with the table's wild-type CDR3 AGPMKTSYDKVI | 0
60 | […] (CDR3 as printed); P3C derived by comparing it with the table's wild-type CDR3 AGPMKTSYDKVI | 0
61 | […] (CDR3 as printed); T6Y derived by comparing it with the table's wild-type CDR3 AGPMKTSYDKVI | 0
62 | […] (CDR3 as printed); S7Y derived by comparing it with the table's wild-type CDR3 AGPMKTSYDKVI | 0
63 | […] (CDR3 as printed); A1F derived by comparing it with the table's wild-type CDR3 AGPMKTSYDKVI | 0
64 | […] (CDR3 as printed); P3Y derived by comparing it with the table's wild-type CDR3 AGPMKTSYDKVI | 0
65 | […] (CDR3 as printed); S7D derived by comparing it with the table's wild-type CDR3 AGPMKTSYDKVI | 0
66 | […] (CDR3 as printed); V11P derived by comparing it with the table's wild-type CDR3 AGPMKTSYDKVI | 0
67 | […] (CDR3 as printed); V11Y derived by comparing it with the table's wild-type CDR3 AGPMKTSYDKVI | 0
68 | […] (CDR3 as printed); I12G derived by comparing it with the table's wild-type CDR3 AGPMKTSYDKVI | 0
69 | […] (CDR3 as printed); M4V derived by comparing it with the table's wild-type CDR3 AGPMKTSYDKVI | 0

— paper PMC13397619
